One data set relates to TevN201-ZFE (synthetic). Put plainly: cell_activity.
The test system of a further data set is I-BmoI. Description: cleavage_in_vitro. The conditions noted are these: one-site plasmid; two-site 0.096.
I-BmoI, sequence (chain, as listed by the source): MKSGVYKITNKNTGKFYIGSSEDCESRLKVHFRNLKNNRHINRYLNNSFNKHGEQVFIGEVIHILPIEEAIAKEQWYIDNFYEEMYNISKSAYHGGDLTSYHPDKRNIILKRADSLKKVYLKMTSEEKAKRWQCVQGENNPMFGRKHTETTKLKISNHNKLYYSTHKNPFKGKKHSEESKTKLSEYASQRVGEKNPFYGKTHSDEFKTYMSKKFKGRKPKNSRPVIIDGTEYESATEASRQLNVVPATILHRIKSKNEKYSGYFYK

TevN201-ZFE (synthetic), sequence (chain, as listed by the source): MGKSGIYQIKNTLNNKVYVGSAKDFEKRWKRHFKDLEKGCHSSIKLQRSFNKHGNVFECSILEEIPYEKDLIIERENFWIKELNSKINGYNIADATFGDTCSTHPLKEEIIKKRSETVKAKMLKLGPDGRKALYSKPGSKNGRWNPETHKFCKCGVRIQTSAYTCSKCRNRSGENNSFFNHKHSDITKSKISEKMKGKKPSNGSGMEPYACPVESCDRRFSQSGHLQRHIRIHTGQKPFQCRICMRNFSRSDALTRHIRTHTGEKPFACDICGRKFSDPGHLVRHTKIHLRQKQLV

On to “p11-lacY-wtx1 plasmid without target site”, for which the activity with TevN201-ZFE (synthetic) worked out at 0 % survival.

Regarding pBmoIHS thyA homing site plasmid, the activity with I-BmoI is 0.105 s-1 (kobs).

Values taken from patent publication US20130210151.
